Measured values published in publication PMC4075491, “Crystallography based structure elucidation of the complex of C-terminal fragment of Aβ polypeptide of Alzheimer’s disease with phospholipase A2” (BMC Genomics, 2014).

Biological target: T1, phospholipase A2 (PLA2) from cobra venom (cobra, UniProt P60045 8-126)
T1 construct: source: purified to homogeneity from cobra venom
Assay: enzyme kinetic studies (competitive); kinetic studies; the peptide binds to PLA2 in a competitive manner; no conditions told
Details: both partners purified

T1 sequence (P60045 8-126): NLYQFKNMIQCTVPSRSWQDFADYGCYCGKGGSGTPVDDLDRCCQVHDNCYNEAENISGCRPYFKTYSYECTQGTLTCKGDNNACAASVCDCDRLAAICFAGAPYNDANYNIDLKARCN

B1: Aβ(36-42) C-terminal heptapeptide Val-Gly-Gly-Val-Val-Ile-Ala (peptide)
peptide: VGGVVIA
notes: C-terminal heptapeptide of the Aβ polypeptide of Alzheimer's disease, residues 36-42; numbers count on: the Aβ peptide; also called VGGVVIA; Aβ_(36-42) peptide
Ki: 520 nM
